One may read the Kd as the equilibrium constant for the complex coming apart. The term koff denotes the rate constant with which the complex falls apart. The term kon denotes the second-order rate constant of association.

Consider 13 molecules from patent US20190112365A1 (EISAI R AND D MANAGEMENT, published 2019).

The target in this assay is T1, Human Tau 2N4R, wild type, recombinant full length (human, UniProt P10636 2-758).
T1 construct: Full length 2N4R isoform; monomer in SPR and ELISA; heparin-induced aggregates or seeds in the functional assays; also called Tau441; Tau-441
T1 sequence (P10636 other isoform, or with tags, fused parts or gaps limits assumed): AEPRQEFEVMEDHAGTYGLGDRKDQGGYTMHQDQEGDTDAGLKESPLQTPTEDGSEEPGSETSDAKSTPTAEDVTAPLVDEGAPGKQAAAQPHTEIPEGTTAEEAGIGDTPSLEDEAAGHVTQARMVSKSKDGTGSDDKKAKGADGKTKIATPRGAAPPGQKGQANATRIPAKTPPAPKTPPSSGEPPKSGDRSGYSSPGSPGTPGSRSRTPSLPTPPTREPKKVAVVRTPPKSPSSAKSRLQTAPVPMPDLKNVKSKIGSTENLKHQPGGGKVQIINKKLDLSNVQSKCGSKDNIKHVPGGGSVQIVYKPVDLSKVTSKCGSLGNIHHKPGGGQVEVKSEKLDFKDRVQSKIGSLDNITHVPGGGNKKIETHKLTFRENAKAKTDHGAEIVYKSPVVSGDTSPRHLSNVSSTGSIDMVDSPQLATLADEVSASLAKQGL
Briefly: SPR BIAcore, mAb captured by anti-human IgG, Tau flowed, 1:1 Langmuir. The protocol: All experiments were performed using a BIAcore™ T-100 instrument (GE Healthcare). 10 μL anti-human IgG (monoclonal mouse anti-human Fc) from human antibody capture kit (GE Healthcare) was diluted to 25 μL/mL in 200 μL final immobilization buffer (10 mM sodium acetate, pH 5.0). The flow rate was set to 5 μL/min, flowpath 1. Fifty μL N-hydroxysuccinamide (NETS) and 50 μL 1-ethyl-3-(3-dimethylaminopropyl) carbidiimide (EDC) were mixed and injected for 420 sec to activate the CM5 chip surface. The diluted antibody was injected for 360 seconds followed by 1 M ethanolamine for 420 seconds. The flowpath was then switched to flowpath 2. A new EDC/NHS mixture was prepared and the procedure was repeated for flow cell 2. The surface was conditioned by 2 injections of 30 sec using flowpath 1, 2 at 30 μL/min of 3M MgCl₂. For the anti-mouse surface, 10 μL anti-mouse IgG (polyclonal rabbit anti-mouse IgG) from mouse antibody capture kit (GE Healthcare) was diluted to 30 μL/mL in 324 μL final immobilization buffer (10 mM sodium acetate, pH 5.0). The flow rate was set to 5 μL/min, flowpath 3. Fifty μL NHS and 50 μL EDC were mixed and injected for 420 sec to activate the chip surface. The diluted antibody was injected for 420 sec. 1 M ethanolamine was injected for 420 sec. Flow path was switched to flowpath 4. A new EDC/NHS mixture was prepared and the procedure was repeated for flow cell 4. The surface was conditioned by 2 injections of 30 sec using flowpath 3, 4 at 30 μL/min of 10 mM glycine, pH 1.7.
Binding of humanized and mouse antibodies were analyzed by surface plasmon resonance (BIAcore™) to determine their relative association rates (kₐ), dissociation rates (kd), and equilibrium binding constants (KD). Anti-mouse or anti-human antibodies were immobilized on a CM5 chip and sample mAbs were captured on the chip. 2N4R Tau was flowed over the chip and binding observed. The binding constants kₐ, kd, and KD were determined using a 1:1 Langmuir fitting model.

B1: 7G6-HCzu1-LCzu1 (antibody, human IgG1, kappa, V domains shown)
VH: QVQLVQSGAEVKKPGASVKVSCKASGYTFTTYWITWVRQAPGQGLEWMGDIYPGSSICNYNEKFKSRVTMTRDTSTSTVYMELSSLRSEDTAVYYCAREDGYDAWFAYWGQGTLVTVSS
VL: DVVMTQSPLSLPVTLGQPASISCRSSQSILHSNGNTYLEWFQQRPGQSPRRLIYKVSNRFSGVPDRFSGSGSGTDFTLKISRVEAEDVGVYYCFQGSHVPFTFGQGTKLEIKR
notes: humanized, human IgG1 kappa
As for B1, the Kd came to 202 pM, the koff turned out to be 0.000519 s⁻¹ and the kon amounted to 2.57e+06 M⁻¹ s⁻¹.

B2: 7G6-HCzu3-LCzu2 (antibody, human IgG1, kappa, V domains shown)
VH: QVQLVQSGAEVKKPGASVKVSCKASGYTFTTYWITWVRQAPGQGLEWMGDIYPGSSICNYNEKFKSRVTMTVDTSTSTAYMELSSLRSEDTAVYYCAREDGYDAWFAYWGQGTLVTVSS
VL: DVVMTQSPLSLPVTLGQPASISCRSSQSILHSNGNTYLEWYQQRPGQSPRLLICKVSNRFSGVPDRFSGSGSGTDFTLKISRVEAEDVGVYYCFQGSHVPFTFGQGTKLEIKR
notes: humanized, human IgG1 kappa
For the molecule B2, the Kd came to 121 pM, the koff stood at 0.000242 s⁻¹ and the kon was 2e+06 M⁻¹ s⁻¹.

B3: 7G6-HCzu2-LCzu2 (antibody, human IgG1, kappa, V domains shown)
VH: QVQLVQSGAEVKKPGASVKVSCKASGYTFTTYWITWVRQAPGQGLEWMGDIYPGSSICNYNEKFKSRVTMTVDTSTSTVYMELSSLRSEDTAVYYCAREDGYDAWFAYWGQGTLVTVSS
VL: DVVMTQSPLSLPVTLGQPASISCRSSQSILHSNGNTYLEWYQQRPGQSPRLLICKVSNRFSGVPDRFSGSGSGTDFTLKISRVEAEDVGVYYCFQGSHVPFTFGQGTKLEIKR
notes: humanized, human IgG1 kappa
Consider B3, for which the Kd amounted to 101 pM, the koff was determined as 0.000214 s⁻¹ and the kon came out at 2.12e+06 M⁻¹ s⁻¹.

B4: 7G6-HCzu5-LCzu8 (antibody, human IgG1, kappa, V domains shown)
VH: QVQLVQSGAEVKKPGASVKVSCKASGYTFTTYWITWVRQAPGQGLEWMGDIYPGSSISNYNEKFKSRVTMTVDTSTSTAYMELSSLRSEDTAVYYCAREDGYDAWFAYWGQGTLVTVSS
VL: DVVMTQSPLSLPVTLGQPASISCRSSQSIVHSNGNTYLEWFQQRPGQSPRRLISKVSNRFSGVPDRFSGSGSGTDFTLKISRVEAEDVGVYYCFQGSHVPFTFGQGTKLEIKR
notes: humanized, human IgG1 kappa
With B4, the Kd came to 82.8 pM, the koff is 0.000298 s⁻¹ and the kon came to 3.6e+06 M⁻¹ s⁻¹.

B5: 7G6-HCzu3-LCzu1 (antibody, human IgG1, kappa, V domains shown)
VH: QVQLVQSGAEVKKPGASVKVSCKASGYTFTTYWITWVRQAPGQGLEWMGDIYPGSSICNYNEKFKSRVTMTVDTSTSTAYMELSSLRSEDTAVYYCAREDGYDAWFAYWGQGTLVTVSS
VL: DVVMTQSPLSLPVTLGQPASISCRSSQSILHSNGNTYLEWFQQRPGQSPRRLIYKVSNRFSGVPDRFSGSGSGTDFTLKISRVEAEDVGVYYCFQGSHVPFTFGQGTKLEIKR
notes: humanized, human IgG1 kappa
In the case of B5, the Kd came to 309 pM, the koff was found to be 0.000856 s⁻¹ and the kon is 2.77e+06 M⁻¹ s⁻¹.

B6: 7G6-HCzu5-LCzu2 (antibody, human IgG1, kappa, V domains shown)
VH: QVQLVQSGAEVKKPGASVKVSCKASGYTFTTYWITWVRQAPGQGLEWMGDIYPGSSISNYNEKFKSRVTMTVDTSTSTAYMELSSLRSEDTAVYYCAREDGYDAWFAYWGQGTLVTVSS
VL: DVVMTQSPLSLPVTLGQPASISCRSSQSILHSNGNTYLEWYQQRPGQSPRLLICKVSNRFSGVPDRFSGSGSGTDFTLKISRVEAEDVGVYYCFQGSHVPFTFGQGTKLEIKR
notes: humanized, human IgG1 kappa
Take B6: the Kd came to 127 pM, the koff was 0.000237 s⁻¹ and the kon worked out at 1.86e+06 M⁻¹ s⁻¹.

B7: 7G6-HCzu3-LCzu6 (antibody, human IgG1, kappa, V domains shown)
VH: QVQLVQSGAEVKKPGASVKVSCKASGYTFTTYWITWVRQAPGQGLEWMGDIYPGSSICNYNEKFKSRVTMTVDTSTSTAYMELSSLRSEDTAVYYCAREDGYDAWFAYWGQGTLVTVSS
VL: DVVMTQSPLSLPVTLGQPASISCRSSQSILHSNGNTYLEWYQQRPGQSPRLLISKVSNRFSGVPDRFSGSGSGTDFTLKISRVEAEDVGVYYCFQGSHVPFTFGQGTKLEIKR
notes: humanized, human IgG1 kappa
As for B7, the Kd amounted to 120 pM, the koff came to 0.000227 s⁻¹ and the kon came to 1.9e+06 M⁻¹ s⁻¹.

B8: 7G6-HCzu1-LCzu2 (antibody, human IgG1, kappa, V domains shown)
VH: QVQLVQSGAEVKKPGASVKVSCKASGYTFTTYWITWVRQAPGQGLEWMGDIYPGSSICNYNEKFKSRVTMTRDTSTSTVYMELSSLRSEDTAVYYCAREDGYDAWFAYWGQGTLVTVSS
VL: DVVMTQSPLSLPVTLGQPASISCRSSQSILHSNGNTYLEWYQQRPGQSPRLLICKVSNRFSGVPDRFSGSGSGTDFTLKISRVEAEDVGVYYCFQGSHVPFTFGQGTKLEIKR
notes: humanized, human IgG1 kappa
As to B8, the Kd was determined as 110 pM, the koff is 0.000241 s⁻¹ and the kon was found to be 2.2e+06 M⁻¹ s⁻¹.

B9: 7G6-HCzu5-LCzu7 (antibody, human IgG1, kappa, V domains shown)
VH: QVQLVQSGAEVKKPGASVKVSCKASGYTFTTYWITWVRQAPGQGLEWMGDIYPGSSISNYNEKFKSRVTMTVDTSTSTAYMELSSLRSEDTAVYYCAREDGYDAWFAYWGQGTLVTVSS
VL: DVVMTQSPLSLPVTLGQPASISCRSSQSILHSNGNTYLEWFQQRPGQSPRRLISKVSNRFSGVPDRFSGSGSGTDFTLKISRVEAEDVGVYYCFQGSHVPFTFGQGTKLEIKR
notes: humanized, human IgG1 kappa
B9: the Kd amounted to 96.8 pM, the koff stood at 0.000304 s⁻¹ and the kon turned out to be 3.14e+06 M⁻¹ s⁻¹.

B10: 7G6-HCzu4-LCzu2 (antibody, human IgG1, kappa, V domains shown)
VH: QVQLVQSGAEVKKPGASVKVSCKASGYTFTTYWITWVRQAPGQGLEWMGDIYPGSSICNYAQKFQGRVTMTVDTSTSTAYMELSSLRSEDTAVYYCAREDGYDAWFAYWGQGTLVTVSS
VL: DVVMTQSPLSLPVTLGQPASISCRSSQSILHSNGNTYLEWYQQRPGQSPRLLICKVSNRFSGVPDRFSGSGSGTDFTLKISRVEAEDVGVYYCFQGSHVPFTFGQGTKLEIKR
notes: humanized, human IgG1 kappa
For the molecule B10, the Kd was determined as 121 pM, the koff is 0.000242 s⁻¹ and the kon stood at 2e+06 M⁻¹ s⁻¹.

B11: 7G6-HCzu4-LCzu1 (antibody, human IgG1, kappa, V domains shown)
VH: QVQLVQSGAEVKKPGASVKVSCKASGYTFTTYWITWVRQAPGQGLEWMGDIYPGSSICNYAQKFQGRVTMTVDTSTSTAYMELSSLRSEDTAVYYCAREDGYDAWFAYWGQGTLVTVSS
VL: DVVMTQSPLSLPVTLGQPASISCRSSQSILHSNGNTYLEWFQQRPGQSPRRLIYKVSNRFSGVPDRFSGSGSGTDFTLKISRVEAEDVGVYYCFQGSHVPFTFGQGTKLEIKR
notes: humanized, human IgG1 kappa
B11: the Kd stood at 237 pM, the koff was found to be 0.000847 s⁻¹ and the kon was 3.57e+06 M⁻¹ s⁻¹.

B12: 7G6-HCzu5-LCzu6 (antibody, human IgG1, kappa, V domains shown)
VH: QVQLVQSGAEVKKPGASVKVSCKASGYTFTTYWITWVRQAPGQGLEWMGDIYPGSSISNYNEKFKSRVTMTVDTSTSTAYMELSSLRSEDTAVYYCAREDGYDAWFAYWGQGTLVTVSS
VL: DVVMTQSPLSLPVTLGQPASISCRSSQSILHSNGNTYLEWYQQRPGQSPRLLISKVSNRFSGVPDRFSGSGSGTDFTLKISRVEAEDVGVYYCFQGSHVPFTFGQGTKLEIKR
notes: humanized, human IgG1 kappa
As for B12, the Kd was 96.1 pM, the koff worked out at 0.000206 s⁻¹ and the kon turned out to be 2.14e+06 M⁻¹ s⁻¹.

B13: 7G6-HCzu2-LCzu1 (antibody, human IgG1, kappa, V domains shown)
VH: QVQLVQSGAEVKKPGASVKVSCKASGYTFTTYWITWVRQAPGQGLEWMGDIYPGSSICNYNEKFKSRVTMTVDTSTSTVYMELSSLRSEDTAVYYCAREDGYDAWFAYWGQGTLVTVSS
VL: DVVMTQSPLSLPVTLGQPASISCRSSQSILHSNGNTYLEWFQQRPGQSPRRLIYKVSNRFSGVPDRFSGSGSGTDFTLKISRVEAEDVGVYYCFQGSHVPFTFGQGTKLEIKR
notes: humanized, human IgG1 kappa
As to B13, the dissociation constant (Kd) is 226 pM, the koff worked out at 0.00064 s⁻¹ and the kon was determined as 2.83e+06 M⁻¹ s⁻¹.
